Assay results taken from patent US10206975 (dated 2019).

Experiments:
human serum albumin [1] = biological target: T1, human serum albumin (human, UniProt P02768); assay: SPR
human complement C5 [2] = biological target: human complement C5 (human); assay: SPR, without albumin
human complement C5 [3] = biological target: human complement C5 (human); assay: SPR, with human albumin
human complement C4 = biological target: T2, human complement C4 (human); assay: SPR, 40 and 400 nM
T2 chain 1: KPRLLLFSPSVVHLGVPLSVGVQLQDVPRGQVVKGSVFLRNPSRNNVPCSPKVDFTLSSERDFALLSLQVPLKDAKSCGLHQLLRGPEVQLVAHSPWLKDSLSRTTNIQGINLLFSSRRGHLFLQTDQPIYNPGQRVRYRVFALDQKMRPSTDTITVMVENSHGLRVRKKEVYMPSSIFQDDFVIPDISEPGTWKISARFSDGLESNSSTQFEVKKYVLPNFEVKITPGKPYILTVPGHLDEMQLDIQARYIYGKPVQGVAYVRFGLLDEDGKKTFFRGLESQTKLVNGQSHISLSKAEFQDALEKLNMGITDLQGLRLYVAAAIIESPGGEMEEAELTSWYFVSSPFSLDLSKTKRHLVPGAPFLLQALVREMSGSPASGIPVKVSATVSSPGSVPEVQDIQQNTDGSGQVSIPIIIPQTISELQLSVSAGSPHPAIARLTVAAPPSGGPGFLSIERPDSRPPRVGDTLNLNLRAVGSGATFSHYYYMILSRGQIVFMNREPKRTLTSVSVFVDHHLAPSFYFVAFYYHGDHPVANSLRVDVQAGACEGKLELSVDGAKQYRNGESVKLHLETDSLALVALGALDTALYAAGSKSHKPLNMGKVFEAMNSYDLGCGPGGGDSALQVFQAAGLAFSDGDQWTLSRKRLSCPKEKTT
T2 chain 2: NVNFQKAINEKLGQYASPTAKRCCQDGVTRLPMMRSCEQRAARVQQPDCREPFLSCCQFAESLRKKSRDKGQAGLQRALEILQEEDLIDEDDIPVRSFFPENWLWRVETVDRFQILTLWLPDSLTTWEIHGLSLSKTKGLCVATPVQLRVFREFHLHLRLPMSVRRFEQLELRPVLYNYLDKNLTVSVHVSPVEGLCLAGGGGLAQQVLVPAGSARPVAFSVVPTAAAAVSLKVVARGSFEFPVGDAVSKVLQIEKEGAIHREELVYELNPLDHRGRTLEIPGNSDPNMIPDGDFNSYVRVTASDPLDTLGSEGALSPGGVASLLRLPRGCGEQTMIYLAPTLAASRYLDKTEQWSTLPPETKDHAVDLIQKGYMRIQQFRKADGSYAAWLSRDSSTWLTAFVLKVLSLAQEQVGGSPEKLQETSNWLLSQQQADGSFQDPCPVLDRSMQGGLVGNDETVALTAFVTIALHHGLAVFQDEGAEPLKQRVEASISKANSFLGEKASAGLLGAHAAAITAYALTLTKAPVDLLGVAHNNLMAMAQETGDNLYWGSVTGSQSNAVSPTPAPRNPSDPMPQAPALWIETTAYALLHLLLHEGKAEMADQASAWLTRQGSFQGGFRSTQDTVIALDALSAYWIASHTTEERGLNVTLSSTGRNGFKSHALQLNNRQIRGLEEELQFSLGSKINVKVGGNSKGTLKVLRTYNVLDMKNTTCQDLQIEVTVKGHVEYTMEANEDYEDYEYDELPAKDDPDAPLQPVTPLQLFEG
T2 chain 3: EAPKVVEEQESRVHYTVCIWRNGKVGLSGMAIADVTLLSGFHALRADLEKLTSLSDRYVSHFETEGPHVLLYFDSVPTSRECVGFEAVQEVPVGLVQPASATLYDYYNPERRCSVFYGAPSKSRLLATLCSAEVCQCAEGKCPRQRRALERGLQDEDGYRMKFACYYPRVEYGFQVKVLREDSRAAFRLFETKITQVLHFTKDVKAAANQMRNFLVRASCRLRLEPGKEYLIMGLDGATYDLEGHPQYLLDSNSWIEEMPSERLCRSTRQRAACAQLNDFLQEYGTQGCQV

human complement C3 = human complement C3 (human, UniProt P01024); assay: SPR, 40 and 400 nM
human complement C5 [4] = biological target: human complement C5 (human); assay: SPR
rat serum albumin = biological target: T3, rat serum albumin (rat, UniProt P02770); assay: SPR
T3 chain: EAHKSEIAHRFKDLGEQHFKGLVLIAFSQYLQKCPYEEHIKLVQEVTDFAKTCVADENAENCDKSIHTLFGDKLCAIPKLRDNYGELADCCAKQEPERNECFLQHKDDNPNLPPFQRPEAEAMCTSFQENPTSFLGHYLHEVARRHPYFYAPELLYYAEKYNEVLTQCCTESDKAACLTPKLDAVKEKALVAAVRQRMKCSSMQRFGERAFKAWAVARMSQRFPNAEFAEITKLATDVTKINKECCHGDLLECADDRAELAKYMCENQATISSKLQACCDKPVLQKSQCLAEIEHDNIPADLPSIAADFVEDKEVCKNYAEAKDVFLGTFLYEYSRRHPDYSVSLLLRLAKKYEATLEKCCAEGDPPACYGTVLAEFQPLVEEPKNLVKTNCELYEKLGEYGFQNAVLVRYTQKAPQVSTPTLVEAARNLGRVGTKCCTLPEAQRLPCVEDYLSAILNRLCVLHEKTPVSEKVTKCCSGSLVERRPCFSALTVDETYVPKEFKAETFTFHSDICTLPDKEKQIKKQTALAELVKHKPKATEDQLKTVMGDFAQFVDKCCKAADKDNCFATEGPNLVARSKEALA

bovine serum albumin = bovine serum albumin (bovine, UniProt P02769); assay: SPR
mouse serum albumin = mouse serum albumin (mouse, UniProt P07724); assay: SPR
human serum albumin [5] = biological target: T1, human serum albumin; assay: SPR, 25C
human complement C5 [6] = biological target: human complement C5 (human); assay: other, ECL saturation binding
human complement C5 [7] = biological target: human complement C5 (human); assay: competition, ECL

Chain of mouse serum albumin (P07724 25-608): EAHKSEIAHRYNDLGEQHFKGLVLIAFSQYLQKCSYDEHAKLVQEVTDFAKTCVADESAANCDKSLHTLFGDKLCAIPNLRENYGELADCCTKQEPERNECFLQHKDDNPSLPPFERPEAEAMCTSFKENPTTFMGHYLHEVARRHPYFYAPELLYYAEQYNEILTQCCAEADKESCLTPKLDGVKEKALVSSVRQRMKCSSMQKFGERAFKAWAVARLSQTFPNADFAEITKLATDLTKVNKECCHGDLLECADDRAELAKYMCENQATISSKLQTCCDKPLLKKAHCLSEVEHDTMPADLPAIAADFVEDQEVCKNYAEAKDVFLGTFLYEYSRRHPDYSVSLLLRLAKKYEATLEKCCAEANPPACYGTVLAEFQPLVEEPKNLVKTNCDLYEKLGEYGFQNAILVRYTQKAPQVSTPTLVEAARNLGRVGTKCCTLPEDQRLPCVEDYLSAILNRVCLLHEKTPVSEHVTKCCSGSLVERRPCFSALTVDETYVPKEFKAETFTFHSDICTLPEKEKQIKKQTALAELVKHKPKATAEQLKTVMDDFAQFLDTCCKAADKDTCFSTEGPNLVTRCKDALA
Chain of bovine serum albumin (P02769 25-607): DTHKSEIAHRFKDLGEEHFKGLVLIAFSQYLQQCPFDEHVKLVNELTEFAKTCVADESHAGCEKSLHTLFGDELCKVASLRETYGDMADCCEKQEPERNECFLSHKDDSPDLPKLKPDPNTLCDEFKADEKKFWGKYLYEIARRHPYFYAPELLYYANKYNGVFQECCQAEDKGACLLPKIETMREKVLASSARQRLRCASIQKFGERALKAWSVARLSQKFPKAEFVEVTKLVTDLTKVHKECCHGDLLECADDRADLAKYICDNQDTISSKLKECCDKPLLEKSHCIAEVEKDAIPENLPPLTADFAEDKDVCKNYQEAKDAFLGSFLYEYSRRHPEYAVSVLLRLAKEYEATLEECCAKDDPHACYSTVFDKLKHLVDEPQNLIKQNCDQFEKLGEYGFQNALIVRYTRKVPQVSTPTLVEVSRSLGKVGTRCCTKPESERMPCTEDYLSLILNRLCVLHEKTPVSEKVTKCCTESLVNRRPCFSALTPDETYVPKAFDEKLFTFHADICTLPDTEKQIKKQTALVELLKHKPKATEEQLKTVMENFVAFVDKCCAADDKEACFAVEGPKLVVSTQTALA

B1: Z06175a-GS-ABD094-GS(G4S)2-Z06175a (designed binder)
chain 1: not shown
chain 2: LAEAKEAANAELDSYGVSDFYKRLIDKAKTVEGVEALKDAILAALP
chain 3: not shown
For B1, the Kd (human serum albumin [1]) was > 1 nM, the Kd (human complement C5 [2]) was 0.662 nM and the Kd (human complement C5 [3]) was 0.586 nM.

B2: Z06175a-GS(G4S)2-ABD094 (designed binder)
chain 1: not shown
chain 2: B1 chain 2
Binder B2 has a Kd (human complement C5 [2]) of 3.75 nM.

B3: Z(748)-GS-ABD094 (Z06009a) (designed binder)
chain 1: not shown
chain 2: B1 chain 2
With B3 the binding result (human complement C4) was “no binding”, the binding result (human complement C3) was “no binding” and the Kd (human complement C5 [4]) was 1.31 nM.

B4: Z06175a-GS-ABD094 (designed binder)
chain 1: not shown
chain 2: B1 chain 2
For B4, the Kd (rat serum albumin) was < 0.1 nM, the binding result (bovine serum albumin) was “no binding” and the Kd (human complement C5 [2]) was 1.43 nM. The Kd (mouse serum albumin) was ~4 nM, the Kd (human serum albumin [5]) was < 1 nM and the Kd (human complement C5 [3]) was 1.43 nM. The Kd (human complement C5 [4]) was 1.18 nM.

B5: Z(750)-GS-ABD094 (designed binder)
chain 1: not shown
chain 2: B1 chain 2
Work on B5 yielded a Kd (human complement C5 [4]) of 1.75 nM.

B6: Z(757)-GS-ABD094 (designed binder)
chain 1: not shown
chain 2: B1 chain 2
Binder B6 has a Kd (human complement C5 [4]) of 2.34 nM.

B7: SULFO-TAG Z(748)-GS-ABD094 (designed binder)
chain 1: not shown
chain 2: B1 chain 2
Work on B7 yielded a Kd (human complement C5 [6]) of 0.9 nM.

B8: Z06175a-Z06175a-GS(G4S)2-ABD094 (designed binder)
chain 1: not shown
chain 2: not shown
chain 3: B1 chain 2
B8 was tested, and the Kd (human complement C5 [2]) was 1.38 nM and the Kd (human complement C5 [3]) was 1.13 nM.

B9: Z(754)-GS-ABD094 (designed binder)
chain 1: not shown
chain 2: B1 chain 2
Work on B9 yielded a Kd (human complement C5 [4]) of 2.28 nM.

B10: Z(749)-GS-ABD094 (designed binder)
chain 1: not shown
chain 2: B1 chain 2
With B10 the Kd (human complement C5 [4]) was 1.83 nM.

B11: ABD094-Z06175a (N-terminal ABD) (designed binder)
chain 1: B1 chain 2
chain 2: not shown
B11 showed an IC50 (human complement C5 [7]) of 17 nM.

B12: Z06175a-Z06175a-GS-ABD094 (designed binder)
chain 1: not shown
chain 2: not shown
chain 3: B1 chain 2
B12 gave a Kd (human complement C5 [2]) of 0.63 nM and a Kd (human complement C5 [3]) of 0.776 nM.

B13: Z(756)-GS-ABD094 (designed binder)
chain 1: not shown
chain 2: B1 chain 2
B13 was tested, and the Kd (human complement C5 [4]) was 2.01 nM.

B14: Z(752)-GS-ABD094 (designed binder)
chain 1: not shown
chain 2: B1 chain 2
For B14, the Kd (human complement C5 [4]) was 2.58 nM.

B15: OmCI (protein)
chain: MDSESDCTGSEPVDAFQAFSEGKEAYVLVRSTDPKARDCLKGEPAGEKQDNTLPVMMTFKNGTDWASTDWTFTLDGAKVTATLGNLTQNREVVYDSQSHHCHVDKVEKEVPDYEMWMLDAGGLEVEVECCRQKLEELASGRNQMYPHLKDCGGGGSENLYFQGSHHHHHH
Binder B15 has an IC50 (human complement C5 [7]) of 1.5 nM.

B16: Z(755)-GS-ABD094 (designed binder)
chain 1: not shown
chain 2: B1 chain 2
In the case of B16, the Kd (human complement C5 [4]) is reported as 3.05 nM.

B17: Z(751)-GS-ABD094 (designed binder)
chain 1: not shown
chain 2: B1 chain 2
B17 was tested, and the Kd (human complement C5 [4]) was 1.87 nM.

B18: Z05477a-GS-ABD094 (designed binder)
chain 1: not shown
chain 2: B1 chain 2
B18 was tested, and the IC50 (human complement C5 [7]) was ~30 nM.
